Experimental data published in US20130137180.

Key:
[1] = test system: AAVS1 ZFN left (synthetic); assay: cell_activity; conditions: pair with right ZFN; A549 clones positive for HindIII site (308 of 933); none with oligo alone
[2] = test system: AAVS1 ZFN right (synthetic); assay: cell_activity; conditions: pair with left ZFN; A549 clones positive for HindIII site (308 of 933); none with oligo alone

Sequence | activity [1] | activity [2]
ACCCCACAGTGG (double strand) [AAVS1 left ZFN binding site] | 33% | –
TAGGGACAGGAT (double strand) [AAVS1 right ZFN binding site] | – | 33%
